The record followed here is paper doi:10.1101/2020.09.25.312835 (bioRxiv, 2020).

The data set deals with the molecule itself. Description: cross-linking.

B1: C-terminal fragment of bovine ROS-GC1 comprising the αHD and CD (aa 814-1110) (domain or fragment, UniProt P55203 814-1110, looked up)
chain: NKGRKMNIIDSMLRMLEQYSSNLEDLIRERTEELELEKQKTDRLLTQMLPPSVAEALKMGTPVEPEYFEEVTLYFSDIVGFTTISAMSEPIEVVDLLNDLYTLFDAIIGSHDVYKVETIGDAYMVASGLPQRNGHRHAAEIANMALDILSAVGTFRMRHMPEVPVRIRIGLHSGPCVAGVVGLTMPRYCLFGDTVNTASAMESTGLPYRIHVNRSTVQILSALNEGFLTEVRGRTELKGKGAEETYWLVGRRGFNKPIPKPPDLQPGASNHGISLHEIPPDRRQKLEKARPGQFSGK
On to B1, for which the binding result is “binds”.
